In US20210260159A1:

Target: human CD40 on cells (HEK293 transfected with human CD40; Ramos-Blue B-lymphocytes; human B cells; human monocyte-derived dendritic cells) (human) (UniProt P25942)
Assay: cell-based or functional assay

Sequence of UniProt P25942 (P25942 21-277 limits assumed): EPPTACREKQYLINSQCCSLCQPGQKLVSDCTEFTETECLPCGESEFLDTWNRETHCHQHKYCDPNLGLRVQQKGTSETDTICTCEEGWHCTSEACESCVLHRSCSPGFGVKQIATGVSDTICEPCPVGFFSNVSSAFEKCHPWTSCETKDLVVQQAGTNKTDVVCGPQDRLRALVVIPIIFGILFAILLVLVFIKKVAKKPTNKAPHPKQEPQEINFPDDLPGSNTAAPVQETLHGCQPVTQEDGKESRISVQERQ

EC50 (nM), NFkB-luciferase reporter, HuCD40 293 HEK NFkB c3 cells: 2.27 nM
EC50 (nM), NFkB/AP-1 reporter, Ramos-Blue B-cells: 208 nM
Substance: human IgG4P isotype control NIP-228 (antibody)
